Laboratory results published in patent publication US20140179896A1 (published 2014).

target: T1, human vascular endothelial growth factor receptor-2 Fc chimera (KDR-Fc) (human, UniProt P35968 20-764); assay: radioactive equilibrium binding, 1 nM KDR-Fc
T1 construct: range 1-764; purchased from R&D Systems; also called hKDR; human VEGF-R2-Fc; not shown: human IgG1 Fc
In short: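 Percent of input bound is specific binding: total ³⁵S eluted from Protein A beads minus nonspecific bead binding without receptor. The binder (0.2 or 0.5 nM) was incubated with titrated VEGF-R2-Fc in buffer B, 30° C, 1 h.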

T1 sequence (P35968 20-764 limits assumed, change not shown, form in doubt): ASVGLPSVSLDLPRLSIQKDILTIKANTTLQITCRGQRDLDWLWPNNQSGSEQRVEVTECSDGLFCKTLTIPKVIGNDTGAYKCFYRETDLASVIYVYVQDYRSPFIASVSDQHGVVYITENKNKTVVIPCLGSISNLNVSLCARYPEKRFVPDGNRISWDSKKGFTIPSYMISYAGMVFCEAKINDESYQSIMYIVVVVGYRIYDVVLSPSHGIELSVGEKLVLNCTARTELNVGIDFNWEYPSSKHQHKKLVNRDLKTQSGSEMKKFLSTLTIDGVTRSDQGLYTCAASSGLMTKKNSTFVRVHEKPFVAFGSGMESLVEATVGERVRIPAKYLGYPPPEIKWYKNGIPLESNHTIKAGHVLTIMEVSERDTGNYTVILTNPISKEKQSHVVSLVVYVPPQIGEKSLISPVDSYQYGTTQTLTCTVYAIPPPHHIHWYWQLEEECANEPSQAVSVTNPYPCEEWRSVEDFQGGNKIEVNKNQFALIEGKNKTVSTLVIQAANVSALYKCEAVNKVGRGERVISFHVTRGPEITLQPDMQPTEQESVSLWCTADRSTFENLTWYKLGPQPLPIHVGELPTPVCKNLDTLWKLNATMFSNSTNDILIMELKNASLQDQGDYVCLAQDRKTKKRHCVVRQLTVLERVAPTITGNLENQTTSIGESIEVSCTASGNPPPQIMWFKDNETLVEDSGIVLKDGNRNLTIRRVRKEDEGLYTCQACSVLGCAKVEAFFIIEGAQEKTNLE

| Binder | Binding to 1 nM KDR, % |
| --- | --- |
| 4A12 PR3 (designed binder, tag left out) EVVAATPTSLLISWRHPHFPTRYYRITYGETGGNSPVQEFTVPLQPPTATISGLKPGVDYTITGYAVTVAQNDHELLTPISINYRT | 13% |
| 1′DelE11 PR4 (designed binder, tag left out) EVVAATPTSLLISWRHPHFPTRYYRITYGETGGNSPVQEFTVPLQPPTATISGLKPGVDYTITGYAVTVAQNDRELITPISINYRT | 9% |
| 1′DelC5 PR4 (designed binder, tag left out) EVVAATPTSLLISWRHPHFPTRYYRITYGETGGNSPVQEFTVPLQPPTATISGLKPGVDYTITGYAVTLAQNDHEIMTPISINYRT | 11% |
| 1′DelE12 PR4 (designed binder, tag left out) EVVAATPTSLLISWRHPHFPTRYYRITYGETGGNSPVQEFTVPLQPPTATISGLKPGVDYTITGYAVTVAQSDHELFTPISINYRT | 13% |
| 1′DelB7 PR4 (designed binder, tag left out) EVVAATPTSLLISWRHPHFPTRYYRITYGETGGNSPVQEFTVPLQPPTATISGLKPGVDYTITGYAVTVAQNDHELKTPISINYRT | 8% |
| 1′DelH7 PR4 (designed binder, tag left out) EVVAATPTSLLISWRHPHFPTRYYRITYGETGGNSPVQEFTVPLQPPTATISGLKPGVDYTITGYAVTVGQNDQELLTPISINYRT | 11% |
| 1′DelH1 PR4 (designed binder, tag left out) EVVAATPTSLLISWRHPHFPTRYYRITYGETGGNSPVQEFTVPLQPPTATISGLKPGVDYTITGYAVTVAQNGHELITPISINYRT | 9% |
| 1′DelC2 PR4 (designed binder, tag left out) EVVAATPTSLLISWRHPHFPTRYYRITYGETGGNSPVQEFTVPLQPPTATISGLKPGVDYTITGYAVTVDRNDHELFTPISINYRT | 13% |
| 1′DelC10 PR4 (designed binder, tag left out) EVVAATPTSLLISWRHPHFPTRYYRITYGETGGNSPVQEFTVPLQPPTATISGLKPGVDYTITGYAVTVAKNDHELITPISINYRT | 8% |
| 1′DelH6 PR4 (designed binder, tag left out) EVVAATPTSLLISWRHPHFPTRYYRITYGETGGNSPVQEFTVPLQPPTATISGLKPGVDYTITGYAVTVGQYDHELITPISINYRT | 6% |
| 1′DelG11 PR4 (designed binder, tag left out) EVVAATPTSLLISWRHPHFPTRYYRITYGETGGNSPVQEFTVPLQPPTATISGLKPGVDYTITGYAVTLAQNGHVLITPISINYRT | 11% |
| 1′DelA9 PR4 (designed binder, tag left out) EVVAATPTSLLISWRHPHFPTRYYRITYGETGGNSPVQEFTVPLQPPTATISGLKPGVDYTITGYAVTLAQNDHELMTPISINYRT | 13% |
| 1′DelD3 PR4 (designed binder, tag left out) EVVAATPTSLLISWRHPHFPTRYYRITYGETGGNSPVQEFTVPLQPPTATISGLKPGVDYTITGYAVTLAQNNHELITPISINYRT | 12% |
| 1′DelC4 PR4 (designed binder, tag left out) EVVAATPTSLLISWRHPHFPTRYYRITYGETGGNSPVQEFTVPLQPPTATISGLKPGVDYTITGYAVTVAQSNHELMTPISINYRT | 9% |
| 1′DelC6 PR4 (designed binder, tag left out) EVVAATPTSLLISWRHPHFPTRYYRITYGETGGNSPVQEFTVPLQPPTATISGLKPGVDYTITGYAVTVAQNEHELLTPISINYRT | 12% |
| 1′DelG9 PR4 (designed binder, tag left out) EVVAATPTSLLISWRHPHFPTRYYRITYGETGGNSPVQEFTVPLQPPTATISGLKPGVDYTITGYAVTVAQSDHELMTPISINYRT | 10% |
| 1′DelB10 PR4 (designed binder, tag left out) EVVAATPTSLLISWRHPHFPTRYYRITYGETGGNSPVQEFTVPLQPPTATISGLKPGVDYTITGYAVTVARNDHELMTPISINYRT | 11% |
| 2C9 PR3 (designed binder, tag left out) VSDVPRDLEVVAATPTSLLISWRHPHFPTRYYRITYGETGGNSPVQEFTVPLQPPTATISGLKPGVDYTITGYAVTEAPNGRELRTPISINYRT | 7% |

| Binder | Binding to 1 nM KDR, % |
| --- | --- |
| 2C12 PR3 (designed binder, tag left out) VSDVPRDLEVVAATPTSLLISWRHPHFPTRYYRITYGETGGNSPVQEFTVPLQPPTATISGLKPGVDYTITGYAVTDAQNVQAPIAQISINYRT | 6% |
| 2′H5-PR4 (designed binder, tag left out) VSDVPRDLEVVAATPTSLLISWRHPHFPTRYYRITYGETGGNSPVQEFTVPLQPPTATISGLKPGVDYTITGYAVTLGKDVRELLTPISINYRT | 3% |
| 2′B4-PR4 (designed binder, tag left out) VSDVPRDLEVVAATPTSLLISWRHPHFPTRYYRITYGETGGNSPVQEFTVPLQPPTATISGLKPGVDYTITGYAVTSGHNGHEVMTPISINYRT | 4% |
| 2′A11-PR4 (designed binder, tag left out) VSDVPRDLEVVAATPTSLLISWRHPHFPTRYYRITYGETGGNSPVQEFTVPLQPPTATISGLKPGVDYTITGYAVTEDIRVLWLNTTISINYRT | 6% |
| 2H10 PR3 (designed binder, tag left out) VSDVPRDLEVVAATPTSLLISWRHPHFPTRYYRITYGETGGNSPVQEFTVPLQPPTATISGLKPGVDYTITGYAVTLAPSARELMTPISINYRT | 10% |
| 2′A1-PR4 (designed binder, tag left out) VSDVPRDLEVVAATPTSLLISWRHPHFPTRYYRITYGETGGNSPVQEFTVPLQPPTATISGLKPGVDYTITGYAVTSGHNDHMLMIPISINYRT | 11% |
| 2′D5-PR4 (designed binder, tag left out) VSDVPRDLEVVAATPTSLLISWRHPHFPTRYYRITYGETGGNSPVQEFTVPLQPPTATISGLKPGVDYTITGYAVTVAWNDHMLMTPISINYRT | 11% |
| 2G9 PR3 (designed binder, tag left out) VSDVPRDLEVVAATPTSLLISWRHPHFPTRYYRITYGETGGNSPVQEFTVPLQPPTATISGLKPGVDYTITGYAVTEIYNDHELMTPISINYRT | 9% |
| 2H12 PR3 (designed binder, tag left out) VSDVPRDLEVVAATPTSLLISWRHPHFPTRYYRITYGETGGNSPVQEFTVPLQPPTATISGLKPGVDYTITGYAVTEGYQNHELSVPISINYRT | 10% |
| 2′G11-PR4 (designed binder, tag left out) VSDVPRDLEVVAATPTSLLISWRHPHFPTRYYRITYGETGGNSPVQEFTVPLQPPTATISGLKPGVDYTITGYAVTGGQMNRVLMTPISINYRT | 12% |
| 2′B9-PR4 (designed binder, tag left out) VSDVPRDLEVVAATPTSLLISWRHPHFPTRYYRITYGETGGNSPVQEFTVPLQPPTATISGLKPGVDYTITGYAVTVGPTDHELLTPISINYRT | 7% |
| 2′C7-PR4 (designed binder, tag left out) VSDVPRDLEVVAATPTSLLISWRHPHFPTRYYRITYGETGGNSPVQEFTVPLQPPTATISGLKPGVDYTITGYAVTWDQNGHVLLTPISINYRT | 5% |
| 2D12 PR3 (designed binder, tag left out) VSDVPRDLEVVAATPTSLLISWRHPHFPTRYYRITYGETGGNSPVQEFTVPLQPPTATISGLKPGVDYTITGYAVTEGWIDHEIMIPISINYRT | 14% |
| 2F10 PR3 (designed binder, tag left out) VSDVPRDLEVVAATPTSLLISWRHPHFPTRYYRITYGETGGNSPVQEFTVPLQPPTATISGLKPGVDYTITGYAVTLALFDHELLTPISINYRT | 3% |
| 2′F7-PR4 (designed binder, tag left out) VSDVPRDLEVVAATPTSLLISWRHPHFPTRYYRITYGETGGNSPVQEFTVPLQPPTATISGLKPGVDYTITGYAVTLGLRDRELFVPISINYRT | 5% |
| 2′F6-PR4 (designed binder, tag left out) VSDVPRDLEVVAATPTSLLISWRHPHFPTRYYRITYGETGGNSPVQEFTVPLQPPTATISGLKPGVDYTITGYAVTLGWNDHELYIPISINYRT | 4% |
| 2F3 PR3 (designed binder, tag left out) VSDVPRDLEVVAATPTSLLISWRHPHFPTRYYRITYGETGGNSPVQEFTVPLQPPTATISGLKPGVDYTITGYAVTLSHYGKELRTPISINYRT | 8% |
| 2G12 PR3 (designed binder, tag left out) VSDVPRDLEVVAATPTSLLISWRHPHFPTRYYRITYGETGGNSPVQEFTVPLQPPTATISGLKPGVDYTITGYAVTSGQNDHALLIPISINYRT | 6% |
